{"source": "patent US20260069707A1", "about": "“COMBINATION THERAPY WITH ANTIBODY-DRUG CONJUGATES AND HYALURONIDASES” (HALOZYME, INC., priority 2024, published 2026)", "experiment": "Serum PK of Enhertu: total antibody, total ADC, free payload (HPLC-MS/MS), IV vs SC vs SC + rHuPH20", "details": "for TADC/TAB Ratio: listed as ADC", "method": "Serum concentrations of total ADC, total antibody and Free Payload (unconjugated deruxtecan) were determined in three separate assays using HPLC with MS/MS detection.\nA 20.0-μL sample aliquot was diluted 10-fold. A portion of the diluted sample was taken and processed using an immunoaffinity approach. […] The bound proteins were subjected to “on-bead” proteolysis with trypsin. After trypsin digestion, the samples were split into two portions. One portion used the characteristic peptide fragments produced from the trypsin digestion to quantitate total antibody. The second portion was further digested using papain to hydrolyze Dxd from the antibody to quantitate total ADC.\nVVSV was used for the quantitation of total antibody concentrations, DSTY was used for the quantitation of intact antibody (troubleshooting purposes only), and Dxd was used for quantitating Total ADC concentrations.\nA nominal free Dxd, concentration range of […] was chosen to quantitate samples. This assay requires a 50.0 μL porcine serum and skin aliquot. Samples were kept frozen at −80° C. prior to analysis.\nA matrix aliquot is fortified with internal standard. Analytes are isolated through acidified protein precipitation. The eluate is evaporated under a nitrogen stream, and the remaining residue is reconstituted. Final extracts are analyzed via HPLC MS/MS detection using positive ion electrospray.", "note": "“And” between values parts separate entries of the source, which are not always exact repeats. Equal values may be shown once."}
{"substance": "Sacituzumab govitecan [Trodelvy]", "values": [{"measurement": "Relative difference in serum AUC0-7, Free Payload, vs. ADC-IV", "setting": "SC vs. ADC-IV", "value": 83, "unit": "%"}, {"measurement": "Relative difference in serum AUC0-7, TAB, vs. ADC-IV", "setting": "SC vs. ADC-IV", "value": 59, "unit": "%"}, {"measurement": "Relative difference in serum AUC0-7, TADC, vs. ADC-IV", "setting": "SC vs. ADC-IV", "value": 60, "unit": "%"}, {"measurement": "Relative difference in serum Cmax, Free Payload, vs. ADC-IV", "setting": "SC vs. ADC-IV", "value": 70, "unit": "%"}, {"measurement": "Relative difference in serum Cmax, TAB, vs. ADC-IV", "setting": "SC vs. ADC-IV", "value": 28, "unit": "%"}, {"measurement": "Relative difference in serum Cmax, TADC, vs. ADC-IV", "setting": "SC vs. ADC-IV", "value": 29, "unit": "%"}, {"measurement": "TADC/TAB ratio - serum, mean", "setting": "SC, 6 h", "value": 1.054}, {"measurement": "TADC/TAB ratio - serum, mean", "setting": "SC, 24 h", "value": 1.195}, {"measurement": "TADC/TAB ratio - serum, mean", "setting": "SC, 48 h", "value": 0.796}, {"measurement": "TADC/TAB ratio - serum, mean", "setting": "SC, 72 h", "value": 0.806}, {"measurement": "TADC/TAB ratio - serum, mean", "setting": "SC, 96 h", "value": 0.765}, {"measurement": "TADC/TAB ratio - serum, mean", "setting": "SC, 168 h", "value": 1.028}, {"measurement": "SC/IV, mean AUC0-7, ADC", "setting": "minipig serum", "value": 60, "unit": "%"}, {"measurement": "SC/IV, mean AUC0-7, Ab", "setting": "minipig serum", "value": 59, "unit": "%"}, {"measurement": "SC/IV, mean AUC0-7, Payload", "setting": "minipig serum", "value": 83, "unit": "%"}, {"measurement": "SC/IV, mean Cmax, ADC", "setting": "minipig serum", "value": 29, "unit": "%"}, {"measurement": "SC/IV, mean Cmax, Ab", "setting": "minipig serum", "value": 28, "unit": "%"}, {"measurement": "SC/IV, mean Cmax, Payload", "setting": "minipig serum", "value": 70, "unit": "%"}, {"measurement": "ADC/Ab ratio, mean AUC0-7", "setting": "minipig serum, IV", "value": 86, "unit": "%"}, {"measurement": "ADC/Ab ratio, mean Cmax", "setting": "minipig serum, IV", "value": 93, "unit": "%"}, {"measurement": "ADC/Payload ratio, mean AUC0-7", "setting": "minipig serum, IV", "value": 116066, "unit": "%"}, {"measurement": "ADC/Payload ratio, mean Cmax", "setting": "minipig serum, IV", "value": 201037, "unit": "%"}, {"measurement": "ADC/Ab ratio, mean AUC0-7", "setting": "minipig serum, SC", "value": 87, "unit": "%"}, {"measurement": "ADC/Ab ratio, mean Cmax", "setting": "minipig serum, SC", "value": 96, "unit": "%"}, {"measurement": "ADC/Ab ratio, mean Tmax", "setting": "minipig serum, SC", "value": 60, "unit": "%"}, {"measurement": "ADC/Payload ratio, mean AUC0-7", "setting": "minipig serum, SC", "value": 83512, "unit": "%"}, {"measurement": "ADC/Payload ratio, mean Cmax", "setting": "minipig serum, SC", "value": 83474, "unit": "%"}, {"measurement": "ADC/Payload ratio, mean Tmax", "setting": "minipig serum, SC", "value": 57, "unit": "%"}, {"measurement": "AUC0-7, free payload in serum", "setting": "pig, in vivo, iv", "value": 0.04, "unit": "µg·days/mL"}, {"measurement": "AUC0-7, total ADC in serum", "setting": "pig, in vivo, iv", "value": 47.73, "unit": "µg·days/mL"}, {"measurement": "AUC0-7, total antibody in serum", "setting": "pig, in vivo, iv", "value": 55.38, "unit": "µg·days/mL"}, {"measurement": "AUC0-7 free payload", "setting": "pig, in vivo, iv", "value": 0.04, "unit": "µg·days/mL"}, {"measurement": "AUC0-7 total ADC (TADC)", "setting": "pig, in vivo, iv", "value": 47.73, "unit": "µg·days/mL"}, {"measurement": "AUC0-7 total antibody (TAB)", "setting": "pig, in vivo, iv", "value": 55.38, "unit": "µg·days/mL"}, {"measurement": "Cmax free payload", "setting": "pig, in vivo, iv", "value": 10, "unit": "ng/mL"}, {"measurement": "Cmax total ADC (TADC)", "setting": "pig, in vivo, iv", "value": 25120, "unit": "ng/mL"}, {"measurement": "Cmax total antibody (TAB)", "setting": "pig, in vivo, iv", "value": 27000, "unit": "ng/mL"}, {"measurement": "Cmax, free payload in serum", "setting": "pig, in vivo, iv", "value": 10, "unit": "ng/mL"}, {"measurement": "Cmax, total ADC in serum", "setting": "pig, in vivo, iv", "value": 25120, "unit": "ng/mL"}, {"measurement": "Cmax, total antibody in serum", "setting": "pig, in vivo, iv", "value": 27000, "unit": "ng/mL"}, {"measurement": "Tmax free payload", "setting": "pig, in vivo, iv", "value": 0, "unit": "h"}, {"measurement": "Tmax total ADC (TADC)", "setting": "pig, in vivo, iv", "value": 0, "unit": "h"}, {"measurement": "Tmax total antibody (TAB)", "setting": "pig, in vivo, iv", "value": 0, "unit": "h"}, {"measurement": "Tmax, free payload in serum", "setting": "pig, in vivo, iv", "value": 0, "unit": "h"}, {"measurement": "Tmax, total ADC in serum", "setting": "pig, in vivo, iv", "value": 0, "unit": "h"}, {"measurement": "Tmax, total antibody in serum", "setting": "pig, in vivo, iv", "value": 0, "unit": "h"}, {"measurement": "Total ADC concentration in the serum of minipigs", "setting": "pig, in vivo, iv, 0 h", "value": 25.12, "unit": "µg/mL"}, {"measurement": "Total ADC Result", "setting": "pig, in vivo, iv, 5 mL", "value": "<0.100", "unit": "µg/mL"}, {"measurement": "Total ADC concentration in the serum of minipigs", "setting": "pig, in vivo, iv, 5 mL, 6 h", "value": 21.40, "unit": "µg/mL"}, {"measurement": "Total ADC concentration in the serum of minipigs", "setting": "pig, in vivo, iv, 5 mL, 24 h", "value": 12.80, "unit": "µg/mL"}, {"measurement": "Total ADC Result", "setting": "pig, in vivo, iv, 6 h", "value": 21.4, "unit": "µg/mL"}, {"measurement": "Total ADC Result", "setting": "pig, in vivo, iv, 24 h", "value": 12.8, "unit": "µg/mL"}, {"measurement": "Total ADC Result", "setting": "pig, in vivo, iv, 48 h", "value": 7.28, "unit": "µg/mL"}, {"measurement": "Total ADC concentration in the serum of minipigs", "setting": "pig, in vivo, iv, 48 h", "value": 7.28, "unit": "µg/mL"}, {"measurement": "Total ADC Result", "setting": "pig, in vivo, iv, 72 h", "value": 5.04, "unit": "µg/mL"}, {"measurement": "Total ADC concentration in the serum of minipigs", "setting": "pig, in vivo, iv, 72 h", "value": 5.04, "unit": "µg/mL"}, {"measurement": "Total ADC Result", "setting": "pig, in vivo, iv, 96 h", "value": 3.91, "unit": "µg/mL"}, {"measurement": "Total ADC concentration in the serum of minipigs", "setting": "pig, in vivo, iv, 96 h", "value": 3.91, "unit": "µg/mL"}, {"measurement": "Total ADC Result", "setting": "pig, in vivo, iv, 168 h", "value": 1.70, "unit": "µg/mL"}, {"measurement": "Total ADC concentration in the serum of minipigs", "setting": "pig, in vivo, iv, 168 h", "value": 1.70, "unit": "µg/mL"}, {"measurement": "Tmax total ADC (TADC)", "setting": "pig, in vivo, sc", "value": 24, "unit": "h"}, {"measurement": "Tmax, total ADC in serum", "setting": "pig, in vivo, sc", "value": 24, "unit": "h"}, {"measurement": "Total ADC Result", "setting": "pig, in vivo, sc, 0 h", "value": "<0.100", "unit": "µg/mL"}, {"measurement": "Total ADC concentration in the serum of minipigs", "setting": "pig, in vivo, sc, 5 mL, 6 h", "value": 4.08, "unit": "µg/mL"}, {"measurement": "Total ADC concentration in the serum of minipigs", "setting": "pig, in vivo, sc, 5 mL, 24 h", "value": 7.27, "unit": "µg/mL"}, {"measurement": "Total ADC concentration in the serum of minipigs", "setting": "pig, in vivo, sc, 48 h", "value": 5.17, "unit": "µg/mL"}, {"measurement": "Total ADC concentration in the serum of minipigs", "setting": "pig, in vivo, sc, 72 h", "value": 4.35, "unit": "µg/mL"}, {"measurement": "Total ADC concentration in the serum of minipigs", "setting": "pig, in vivo, sc, 96 h", "value": 3.74, "unit": "µg/mL"}, {"measurement": "Total ADC concentration in the serum of minipigs", "setting": "pig, in vivo, sc, 168 h", "value": 2.04, "unit": "µg/mL"}, {"measurement": "TADC/Free Payload, AUC0-7", "setting": "serum, IV", "value": 116066, "unit": "%"}, {"measurement": "TADC/Free Payload, Cmax", "setting": "serum, IV", "value": 201037, "unit": "%"}, {"measurement": "TADC/TAB, AUC0-7", "setting": "serum, IV", "value": 86, "unit": "%"}, {"measurement": "TADC/TAB, Cmax", "setting": "serum, IV", "value": 93, "unit": "%"}, {"measurement": "TADC/TAB Ratio", "setting": "serum, IV, 6 h, individual animal", "value": "0.92 and 0.918"}, {"measurement": "TADC/TAB Ratio", "setting": "serum, IV, 24 h, individual animal", "value": "0.87 and 0.871"}, {"measurement": "TADC/TAB Ratio", "setting": "serum, IV, 48 h, individual animal", "value": "0.80 and 0.804"}, {"measurement": "TADC/TAB Ratio", "setting": "serum, IV, 72 h, individual animal", "value": "0.88 and 0.877"}, {"measurement": "TADC/TAB Ratio", "setting": "serum, IV, 96 h, individual animal", "value": "0.77 and 0.773"}, {"measurement": "TADC/TAB Ratio", "setting": "serum, IV, 168 h, individual animal", "value": "0.99 and 0.994"}, {"measurement": "TADC/Free Payload, AUC0-7", "setting": "serum, SC", "value": 83512, "unit": "%"}, {"measurement": "TADC/Free Payload, Cmax", "setting": "serum, SC", "value": 83474, "unit": "%"}, {"measurement": "TADC/Free Payload, Tmax", "setting": "serum, SC", "value": 57, "unit": "%"}, {"measurement": "TADC/TAB, AUC0-7", "setting": "serum, SC", "value": 87, "unit": "%"}, {"measurement": "TADC/TAB, Cmax", "setting": "serum, SC", "value": 96, "unit": "%"}, {"measurement": "TADC/TAB, Tmax", "setting": "serum, SC", "value": 60, "unit": "%"}, {"measurement": "TADC/TAB Ratio", "setting": "serum, SC, 6 h, individual animals", "value": "1.01 and 1.13 and 1.03 and 1.006 and 1.129 and 1.026"}, {"measurement": "TADC/TAB Ratio", "setting": "serum, SC, 24 h, individual animals", "value": "1.55 and 0.84 and 1.19 and 1.546 and 0.845 and 1.194"}, {"measurement": "TADC/TAB Ratio", "setting": "serum, SC, 48 h, individual animals", "value": "0.81 and 0.82 and 0.76 and 0.808 and 0.823 and 0.756"}, {"measurement": "TADC/TAB Ratio", "setting": "serum, SC, 72 h, individual animals", "value": "0.76 and 0.72 and 0.93 and 0.763 and 0.721 and 0.934"}, {"measurement": "TADC/TAB Ratio", "setting": "serum, SC, 96 h, individual animals", "value": "0.74 and 0.73 and 0.82 and 0.744 and 0.731 and 0.819"}, {"measurement": "TADC/TAB Ratio", "setting": "serum, SC, 168 h, individual animals", "value": "1.20 and 0.89 and 0.99 and 1.204 and 0.891 and 0.989"}]}
